The record followed here is patent US20240092919A1 (Ablynx, published 2024).

Positions count from the first letter of the chain named. In names and notes the source's numbering stands.

T1: Human T cell receptor on human primary T cells (human, UniProt P01848 1-140; P01850 1-176)
T1 TCR alpha (looked up): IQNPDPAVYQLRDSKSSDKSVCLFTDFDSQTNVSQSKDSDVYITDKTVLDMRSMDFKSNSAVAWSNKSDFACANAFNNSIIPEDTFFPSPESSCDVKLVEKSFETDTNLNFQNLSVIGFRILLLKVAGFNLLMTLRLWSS
T1 TCR beta (looked up): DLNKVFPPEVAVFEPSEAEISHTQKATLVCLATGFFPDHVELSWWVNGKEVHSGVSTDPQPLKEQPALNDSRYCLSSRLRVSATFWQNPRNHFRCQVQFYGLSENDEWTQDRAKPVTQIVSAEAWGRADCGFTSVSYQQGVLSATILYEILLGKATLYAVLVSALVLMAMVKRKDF

T2: Cynomolgus TCR(AEA41865/AEA41866)-zipper protein (cynomolgus monkey)
T2 construct: also called cyTCR-zipper protein; cynoTCR zipper
T2 TCR alpha: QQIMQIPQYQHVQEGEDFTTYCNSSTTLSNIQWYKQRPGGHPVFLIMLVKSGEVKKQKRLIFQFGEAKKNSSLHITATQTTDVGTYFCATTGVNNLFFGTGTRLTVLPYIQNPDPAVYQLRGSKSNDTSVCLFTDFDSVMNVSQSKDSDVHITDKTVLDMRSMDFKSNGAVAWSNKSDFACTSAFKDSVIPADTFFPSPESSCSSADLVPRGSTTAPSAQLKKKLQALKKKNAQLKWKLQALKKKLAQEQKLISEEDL
T2 TCR beta: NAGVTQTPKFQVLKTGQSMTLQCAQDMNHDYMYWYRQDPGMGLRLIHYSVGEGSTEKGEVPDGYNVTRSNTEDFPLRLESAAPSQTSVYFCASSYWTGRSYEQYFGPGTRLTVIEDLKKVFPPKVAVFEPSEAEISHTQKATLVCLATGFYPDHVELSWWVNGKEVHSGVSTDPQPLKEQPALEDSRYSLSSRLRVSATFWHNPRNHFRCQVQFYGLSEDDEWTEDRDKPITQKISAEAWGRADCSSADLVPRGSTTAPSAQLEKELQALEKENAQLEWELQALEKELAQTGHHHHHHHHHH

T3: Cynomolgus TCR(AEA41865/AEA41866)-zipper protein (cynomolgus monkey)
T3 construct: also called cyTCR-zipper protein; cynoTCR zipper
T3 TCR alpha: T2 TCR alpha
T3 TCR beta: T2 TCR beta

B1: T017000128 (bispecific antibody)
chain: DVQLVESGGGLVQPGGSLRLSCVASGDVHKINFLGWYRQAPGKEREKVAHISIGDQTDYADSAKGRFTISRDESKNMVYLQMNSLKPEDTAVYFCRAFSRIYPYDYWGQGTLVTVSSGGGGSGGGGSGGGGSGGGGSGGGGSGGGGSGGGGSEVQLVESGGGLVQAGGSLRLSCAASGITSKINDMGWYRQTPGNYREWVASITATGTTNYRDSVKGRFTISRDNAKSTVYLQMNSLKPEDTTVYYCNTFPPISNFWGQGTLVTVSSA
B2: T017000639 (bispecific antibody)
chain: B1 chain with L11V, G26W, L34Y, G35T, M77T, K86R, V92L, F94Y, F98L, Y102W
B3: T017000636 (bispecific antibody)
chain: B1 chain with L11V, G26W, K30Q, L34Y, M77T, K86R, V92L, F94Y, F98L, Y102W
B4: T017000642 (bispecific antibody)
chain: DVQLVESGGGVVQPGGSLRLSCVASWDVHKINFYTWYRQAPGKEREKVAHISIGDQTDYADSAKGRFTISRDESKNTVYLQMNSLRPEDTALYYCRALSKIWPYDYWGQGTLVTVSSGGGGSGGGGSGGGGSGGGGSGGGGSGGGGSGGGGSEVQLVESGGGLVQAGGSLRLSCAASGITSKINDMGWYRQTPGNYREWVASITATGTTNYRDSVKGRFTISRDNAKSTVYLQMNSLKPEDTTVYYCNTFPPISNFWGQGTLVTVSSA
B5: T017000627 (bispecific antibody)
chain: B4 chain with T35G
B6: T017000643 (bispecific antibody)
chain: DVQLVESGGGLVQAGGSLRLSCAASGITSKINDMGWYRQTPGNYREWVASITATGTTNYRDSVKGRFTISRDNAKSTVYLQMNSLKPEDTTVYYCNTFPPISNFWGQGTLVTVSSGGGGSGGGGSGGGGSGGGGSGGGGSGGGGSGGGGSEVQLVESGGGVVQPGGSLRLSCVASWDVHKINFYTWYRQAPGKEREKVAHISIGDQTDYADSAKGRFTISRDESKNTVYLQMNSLRPEDTALYYCRALSKIWPYDYWGQGTLVTVSSA
notes: also called A0110056A10(E1D)-35GS-T0170056G05(L11V, G26W, L34Y, G35T, M77T, K83R, V89L, F91Y, F95L, R97K, Y99W)-A
B7: T017000468 (VHH)
VHH: EVQLVESGGGVVQPGGSLRLSCVASGSVHKINFYGWYRQAPGKEREKVAHISIGDQTDYADSAKGRFTISRDESKNMVYLQMNSLRPEDTALYFCRAFSRIWPYDYWGQGTLVTVSS
B8: T017000569 (VHH)
VHH: B7 VHH with S27D, I31L, Y34L, F98M
B9: T017000613 (VHH)
VHH: B7 VHH with G26W, S27D, F98L, R100K
B10: T017000383 (VHH)
VHH: B7 VHH with S27D, K30Q, Y34L, F98M
B11: T017000390 (VHH)
VHH: B7 VHH with G26W, S27D, K30Q, Y34L, F98M, R100K
B12: T017000358 (VHH)
VHH: B7 VHH with S27A, I31L, Y34L, F98M
B13: T017000615 (VHH)
VHH: B7 VHH with G26Y, S27D, F98L, R100K
B14: T017000602 (VHH)
VHH: B7 VHH with G26W, S27D, K30Q, Y34L, R100K
B15: T017000641 (VHH, not shown: small tags and cut ends)
VHH: B7 VHH with G26W, S27D, G35T, M77T, F94Y, F98L, R100K
B16: T017000625 (VHH, not shown: small tags and cut ends)
VHH: B7 VHH with G26Y, S27D, M77T, F94Y, F98L, R100K
B17: T017000623 (VHH, not shown: small tags and cut ends)
VHH: B7 VHH with G26W, S27D, M77T, F94Y, F98L, R100K
B18: T017000691 (VHH, not shown: small tags and cut ends)
VHH: B7 VHH with G26W, S27E, K30Q, M77T, F94Y, F98L
B19: T017000635 (VHH, not shown: small tags and cut ends)
VHH: B7 VHH with G26W, S27D, K30Q, M77T, F94Y, F98L
B20: T017000141 (VHH, not shown: small tags and cut ends)
VHH: B7 VHH with S27D, Y34L, W102Y
notes: also called T0170000141

The target in the first assay is T1, Human T cell receptor on human primary …. Kind of assay: cell-based or functional assay.
Take B1: the “% Lysis, T cell mediated MOLM-13 cell killing, human primary T cells, E:T 10:1” value (“% Lysis … human primary T cells, E:T 10:1” below) is 32% and the “EC50 (M), T cell mediated MOLM-13 cell killing, human primary T cells, E:T 10:1” value (“EC50 (M) … human primary T cells, E:T 10:1” for short) amounted to 2.3e-10 M.
Take B2: the “% Lysis … human primary T cells, E:T 10:1” value stood at 42% and the “EC50 (M) … human primary T cells, E:T 10:1” value was 3.6e-11 M.
As for B3, the “% Lysis … human primary T cells, E:T 10:1” value came out at 36% and the “EC50 (M) … human primary T cells, E:T 10:1” value was found to be 6.6e-11 M.
Regarding B4, the “% Lysis … human primary T cells, E:T 10:1” value was determined as 32% and the “EC50 (M) … human primary T cells, E:T 10:1” value was 3e-10 M.
B5: the “% Lysis … human primary T cells, E:T 10:1” value stood at 36% and the “EC50 (M) … human primary T cells, E:T 10:1” value is 2.4e-10 M.
Consider B6, for which the “% Lysis … human primary T cells, E:T 10:1” value stood at 0%.

The target of a further assay is T4, Cynomolgus T cell receptor on cynomolgus primary T cells (cynomolgus monkey). Kind of assay: cell-based or functional assay.
With B1, the “% Lysis, T cell mediated MOLM-13 cell killing, cynomolgus primary T cells, E:T 10:1” value (“% Lysis … cynomolgus primary T cells, E:T 10:1” for short) came out at 37% and the “EC50 (M), T cell mediated MOLM-13 cell killing, cynomolgus primary T cells, E:T 10:1” value (shortened to “EC50 (M) … cynomolgus primary T cells, E:T 10:1”) came out at 1.7e-10 M.
On to B2, for which the “% Lysis … cynomolgus primary T cells, E:T 10:1” value was 28% and the “EC50 (M) … cynomolgus primary T cells, E:T 10:1” value is 4.1e-11 M.
Regarding B3, the “% Lysis … cynomolgus primary T cells, E:T 10:1” value came out at 20% and the “EC50 (M) … cynomolgus primary T cells, E:T 10:1” value amounted to 6.7e-11 M.
For B4, the “% Lysis … cynomolgus primary T cells, E:T 10:1” value stood at 37% and the “EC50 (M) … cynomolgus primary T cells, E:T 10:1” value turned out to be 4e-11 M.
On to B5, for which the “% Lysis … cynomolgus primary T cells, E:T 10:1” value was found to be 19% and the “EC50 (M) … cynomolgus primary T cells, E:T 10:1” value amounted to 3.8e-11 M.
B6: the “% Lysis … cynomolgus primary T cells, E:T 10:1” value amounted to 12% and the “EC50 (M) … cynomolgus primary T cells, E:T 10:1” value was determined as 1.6e-10 M.

Another assay deals with T1, Human T cell receptor on human primary …. Kind of assay: cell-based or functional assay. This is another data set of the same source.
Regarding B1, the “% lysis, MOLM-13, Human T cell mediated killing” value stood at 24% and the “EC50 (M), MOLM-13, Human T cell mediated killing” value was 3e-10 M.

Another assay addresses T4, Cynomolgus T cell receptor on …. The experiment in a line: cell-based or functional assay. This is another data set of the same source.
For B1, the “% lysis, MOLM-13, Cynomolgus T cell mediated killing” value came out at 37% and the “EC50 (M), MOLM-13, Cynomolgus T cell mediated killing” value came to 4.1e-10 M.

In a further assay the target is T1, Human T cell receptor on human primary …. The experiment in a line: cell-based or functional assay. This is another data set of the same source.
Turning to B1, the “% lysis, KG-1a, Human T cell mediated killing” value came to 51% and the “EC50 (M), KG-1a, Human T cell mediated killing” value turned out to be 1.3e-09 M.

In a further assay the target is T4, Cynomolgus T cell receptor on …. The experiment in a line: cell-based or functional assay. This is another data set of the same source.
Turning to B1, the “% lysis, KG-1a, Cynomolgus T cell mediated killing” value came to 61% and the “EC50 (M), KG-1a, Cynomolgus T cell mediated killing” value came to 6.7e-10 M.

Another assay concerns the target T1, Human T cell receptor on human primary …. Kind of assay: cell-based or functional assay. This is another data set of the same source.
In the case of B1, the “IC50 (M), xCELLigence CHO Flp-In huCD123 cell killing, Human T cell mediated killing” value stood at 1.4e-11 M.

Another assay addresses T4, Cynomolgus T cell receptor on …. Kind of assay: cell-based or functional assay. The source holds these as a separate data set.
Regarding B1, the “IC50 (M), xCELLigence CHO Flp-In huCD123 cell killing, Cynomolgus T cell mediated killing” value was found to be 1.9e-11 M.

The next assay addresses T2, Cynomolgus …. The experiment in a line: SPR ProteOn off-rate screen.
Source text: (§1) Unique ISVD clones, i.e. clones with a unique sequence, were subsequently selected and screened to determine their off-rate. To this purpose, the ISVD containing periplasmic extracts were screened on huTCR-zipper and cyTCR-zipper protein by SPR on a ProteOn XPR36 instrument. The zipper proteins were immobilized on a GLC sensor chip (between 4300 and 5100RU) via amine coupling chemistry, using EDC/sulfo-NHS for activation of the carboxyl groups on the chip surface (running buffer: HBS-EP+, pH7.4). Periplasmic extracts were injected at 1/10 dilution for 2 min (at a flow rate of 45 μL/min) and dissociation was followed for 900 s. A pulse of 100 s of 3 M MgCl2 at 45 μL/min was used for regeneration. […] Processed sensorgrams were fitted with the Langmuir model (1:1 interaction) using ProteOn Manager 3.1.0 (Version 3.1.0.6) software.
In general, koff refers to a measure of how fast the partners let go of each other. In the case of B7, the koff worked out at 0.00141 s⁻¹.
Same read-out and setting: for B8 the value was 0.00308 s⁻¹; for B9, 0.000364 s⁻¹; for B10, 0.00216 s⁻¹.
On to B11, for which the koff was determined as 0.000221 s⁻¹.
B12: the koff was found to be 0.00115 s⁻¹.
As to B13, the koff was found to be 0.00087 s⁻¹.
For B14, the koff is 0.00055 s⁻¹.

Another assay deals with T1, Human T cell receptor on human primary …. Kind of assay: flow cytometry, human primary T cells.
Broadly, the EC50 is the concentration at which the effect is half-maximal. B15 returned an EC50 of 270 nM.
In turn, B16 registered a 50% effective concentration (EC50) of 230 nM.
B17 yielded an EC50 of 280 nM.
Consider B18, for which the EC50 was 150 nM.
Same read-out and setting: to B19 belongs 70 nM.

The target in a further assay is T3, Cynomolgus …. The experiment in a line: SPR, ProteOn XPR36, 25 C, immobilised TCR-zipper. (In general: Surface plasmon resonance follows binding to a sensor surface in real time, without labels.)
Source text: HuTCR-zipper or cyTCR-zipper protein was immobilized on a GLC sensor chip (between 100-200 RU) via amine coupling chemistry, using EDC/NHS for activation of the carboxyl groups on the chip surface (running buffer: HBS-EP+, pH7.4). […] Processed sensorgrams were fitted with the Langmuir model (1:1 interaction) using ProteOn Manager 3.1.0 (Version 3.1.0.6) software.
One may read the Kd as a measure of binding affinity in units of concentration. A higher Kd goes with lower affinity. The molecule B2 returned a Kd of 44 nM.
The same measure, in the same setting: for B3 the value was 29 nM; for B4, 5.5 nM; for B5, 5.2 nM.
The molecule B6 returned a Kd of 900 nM.

The next assay deals with T2, Cynomolgus …. The experiment in a line: ratio higher/lower kd on huTCR- and cyTCR-zipper (SPR).
Source text: as §1
As to B20, the “gap in off-rate human vs cyno” value was found to be 7.5 fold.
On to B7, for which the “gap in off-rate human vs cyno” value came to 8 fold.
Take B8: the “gap in off-rate human vs cyno” value came out at 9 fold.
Regarding B9, the “gap in off-rate human vs cyno” value is 1 fold.
On to B10, for which the “gap in off-rate human vs cyno” value came out at 5 fold.
For the molecule B11, the “gap in off-rate human vs cyno” value is 3 fold.
Regarding B12, the “gap in off-rate human vs cyno” value came to 8 fold.
As to B13, the “gap in off-rate human vs cyno” value came out at 1.1 fold.
B14: the “gap in off-rate human vs cyno” value was determined as 2 fold.

The target of the next assay is T3, Cynomolgus …. The experiment in a line: higher koff divided by lower koff, humanTCR zipper vs cynoTCR zipper (SPR).
B15: the “Gap in off-rate human vs cyno” value came to 1.1 fold.
B16: the “Gap in off-rate human vs cyno” value came out at 1 fold.
As to B17, the “Gap in off-rate human vs cyno” value came out at 1 fold.
In the case of B18, the “Gap in off-rate human vs cyno” value was over 61.1 fold.
Still for that read-out and setting: for B19 the value was over 55.9 fold.
